Data reported in article PMC7082139, “Molecular Mechanisms of Phosphate Stress Activation of Pseudomonas aeruginosa Quorum Sensing Systems”.

Assays:
PhoB = molecular target: T1, PhoB (Pseudomonas aeruginosa PAO1, UniProt P23620 1-229); experiment: EMSA; details: protein: recombinant; tags: C-terminal His (pET-28b, NcoI-XhoI); chain copies: 2; label: biotin 3'-end; blunt
T1 sequence: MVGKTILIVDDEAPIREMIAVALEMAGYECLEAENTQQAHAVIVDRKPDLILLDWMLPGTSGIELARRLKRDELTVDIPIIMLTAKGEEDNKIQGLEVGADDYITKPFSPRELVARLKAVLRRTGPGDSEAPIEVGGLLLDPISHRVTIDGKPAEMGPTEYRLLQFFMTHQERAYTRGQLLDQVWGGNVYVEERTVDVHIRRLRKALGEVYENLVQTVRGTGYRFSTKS

PhoB(D54A) = PhoB(D54A) (Pseudomonas aeruginosa PAO1, UniProt P23620 1-229, D54A); experiment: EMSA; details: protein: recombinant; tags: C-terminal His (pET-28b); chain copies: 2; label: biotin 3'-end; blunt
RsaL = RsaL (Pseudomonas aeruginosa PAO1, UniProt Q9X7H4 1-80); experiment: EMSA; RsaL-specific shift; displaced by increasing PhoB (competes at 3 uM); details: protein: recombinant; tags: C-terminal His (pET-28b); chain copies: 2; label: biotin 3'-end; blunt

B1: P2+P3 (dsDNA)
DNA 1: GTTATAAAATTATGAAATTTGCATAAATTCTTCAGCTTCCTATTTGGAGGAAGTGAAG
DNA 2: CTTCACTTCCTCCAAATAGGAAGCTGAAGAATTTATGCAAATTTCATAATTTTATAAC
binding result (PhoB): binds

B2: P1+P2 (dsDNA)
DNA 1: TAGCAAGGGTCCGGGTTCACCGAAATCTATCTCATTTGCTAGTTATAAAATTATGAAAT
DNA 2: ATTTCATAATTTTATAACTAGCAAATGAGATAGATTTCGGTGAACCCGGACCCTTGCTA
binding result (PhoB): binds

B3: lasI promoter (dsDNA)
DNA 1: TGCTCTGATCTTTTCGGACGTTTCTTCGAGCCTAGCAAGGGTCCGGGTTCACCGAAATCTATCTCATTTGCTAGTTATAAAATTATGAAATTTGCATAAATTCTTCAGCTTCCTATTTGGAGGAAGTGAAG
DNA 2: CTTCACTTCCTCCAAATAGGAAGCTGAAGAATTTATGCAAATTTCATAATTTTATAACTAGCAAATGAGATAGATTTCGGTGAACCCGGACCCTTGCTAGGCTCGAAGAAACGTCCGAAAAGATCAGAGCA
binding result (PhoB): binds | binding result (PhoB(D54A)): binds | binding result (RsaL): binds

B4: P1 (upstream of pho box) (dsDNA)
DNA 1: TAGCAAGGGTCCGGGTTCACCGAAATCTATCTCATTTGCTA
DNA 2: TAGCAAATGAGATAGATTTCGGTGAACCCGGACCCTTGCTA
binding result (PhoB): no binding

B5: P3 (downstream of pho box) (dsDNA)
DNA 1: TTGCATAAATTCTTCAGCTTCCTATTTGGAGGAAGTGAAG
DNA 2: CTTCACTTCCTCCAAATAGGAAGCTGAAGAATTTATGCAA
binding result (PhoB): no binding
